Laboratory results reported in patent US20190070251A1.

Legend:
[1] = biological target: human µ opioid receptor (human), P35372; test: radioligand competition with [3H]naloxone (5 nM), membranes of CHO-K1 cells with recombinant human µ opioid receptor; Ki by Cheng-Prusoff; sample diluted on the day of the assay (unreleased)
[2] = biological target: human µ opioid receptor (human), P35372; test: radioligand competition with [3H]naloxone (5 nM), membranes of CHO-K1 cells with recombinant human µ opioid receptor; Ki by Cheng-Prusoff; sample pre-incubated 72 h at 37 C, pH 7.5 (partly released biphalin)
[3] = biological target: GPR54 G-Protein coupled receptor (cloned human GPR54) (human) (UniProt Q969F8); test: cell-based or functional assay
[4] = biological target: human µ opioid receptor (human), P35372; test: radioligand competition with [3H]naloxone (5 nM), membranes of CHO-K1 cells with recombinant human µ opioid receptor; Ki by Cheng-Prusoff; sample pre-incubated 20 h at 37 C, pH 7.5 (partly released biphalin)
[5] = biological target: human µ opioid receptor (human), P35372; test: radioligand competition with [3H]naloxone (5 nM), membranes of CHO-K1 cells with recombinant human µ opioid receptor; Ki by Cheng-Prusoff
[6] = biological target: human µ opioid receptor (human), P35372; test: as above; remark: listed apart in the source
[7] = biological target: human µ opioid receptor (human), P35372; test: radioligand competition with [3H]naloxone (5 nM), membranes of CHO-K1 cells with recombinant human µ opioid receptor; Ki by Cheng-Prusoff; sample pre-incubated 72 h at 37 C, pH 7.5

human µ opioid receptor (human), P35372, sequence (P35372 whole entry): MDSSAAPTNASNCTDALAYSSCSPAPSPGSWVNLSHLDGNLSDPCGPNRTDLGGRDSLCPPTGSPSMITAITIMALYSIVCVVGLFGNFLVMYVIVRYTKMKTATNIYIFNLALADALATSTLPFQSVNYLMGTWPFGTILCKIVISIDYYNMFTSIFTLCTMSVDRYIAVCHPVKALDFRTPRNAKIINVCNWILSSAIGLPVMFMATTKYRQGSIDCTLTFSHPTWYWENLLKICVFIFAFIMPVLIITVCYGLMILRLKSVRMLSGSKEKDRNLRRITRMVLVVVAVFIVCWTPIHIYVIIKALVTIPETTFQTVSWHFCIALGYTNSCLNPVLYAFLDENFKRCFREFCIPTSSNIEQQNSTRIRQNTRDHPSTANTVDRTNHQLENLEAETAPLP

Row | Binder | Ki [1] [µM] | EC50 (nM) of agonist activation at GPR54 (FLIPR calcium flux) [3] [nM] | Fold change compared to metastin [3] [fold] | further results
1 | YAGF (modifications not checked) [Di-CAC-PEG2-FMOC-NHS-20K-biphalin] | 1.12 | – | – | Ki [2]: 0.0137 µM
2 | YAGF (modifications not checked) [Di-C2-PEG2-FMOC-NHS-20K-biphalin] | 0.0217 | – | – | Ki [4]: 0.0101 µM
3 | YAGF (modifications not checked) [Biphalin] | – | – | – | Ki [5]: 0.0034 µM; Ki [6]: 0.0047 µM; Ki [7]: 0.0031 µM

More lines, main results first:

Row | Ki [1] [µM] | EC50 (nM) of agonist activation at GPR54 (FLIPR calcium flux) [3] [nM] | Fold change compared to metastin [3] [fold] | Binder | further results
4 | – | 11 | 1 | LPNYNWNSFGLRF (C-terminal amide (-NH2)) [Kisspeptin-13] | –
5 | – | 190 | 16 | Kisspeptin-54 (C-terminal amide (-NH2)) peptide: GTSLSPPPESSGSPQQPGLSAPHSRQIPAPQGAVLVQREKDLPNYNWNSFGLRF | –
